Experimental data reported in US20040198648A1.

Target: human insulin receptor (IR), overexpressed in rat fibroblasts (HIRc B cells) (human) (UniProt P06213)
Experiment: cell-based or functional assay

insulin-induced IR autophosphorylation in intact HIRc B cells, rhAHSG at 1.8 µM: > 50%
Substance: recombinant human AHSG (α2-Heremans Schmid Glycoprotein) (from UniProt P02765 19-367)
